Reference: the PETadex activity labels (doi:10.1016/j.bbrc.2018.11.148)

Key:
Conditions in all cases: pH 8; 30 °C; part of the chain shown
[1] = substrate: p-NP-C12
[2] = substrate: p-NP-C2
[3] = substrate: p-NP-C4
[4] = substrate: p-NP-C6
[5] = substrate: p-NP-C8

B1: unnamed (protein)
chain: MNFPRASRLMQAAVLGGLMAVSAAATAQTNPYARGPNPTAASLEASAGPFTVRSFTVSRPSGYGAGTVYYPTNAGGTVGAIAIVPGYTARQSSIKWWGPRLASHGFVVITIDTNSTLDQPSSRSSQQMAALRQVASLNGTSSSPIYGKVDTARMGVMGWSMGGGGSLISAANNPSLKAAAPQAPWDSSTNFSSVTVPTLIFACENDSIAPVNSSALPIYDSMSRNAKQFLEINGGSHSCANSGNSNQALIGKKGVAWMKRFMDNDTRYSTFACENPNSTRVSDFRTANCS
Km [1]: 2.28 mM | kcat [1]: 1530 s⁻¹ | kcat/Km [1]: 671000 s⁻¹ M⁻¹ | Km [2]: 431 µM | kcat [2]: 1590 s⁻¹ | kcat/Km [2]: 3.69e+06 s⁻¹ M⁻¹ | Km [3]: 315 µM | kcat [3]: 1350 s⁻¹ | kcat/Km [3]: 4.3e+06 s⁻¹ M⁻¹ | Km [4]: 52.8 µM | kcat [4]: 1350 s⁻¹ | kcat/Km [4]: 2.55e+07 s⁻¹ M⁻¹ | Km [5]: 48.1 µM | kcat [5]: 519 s⁻¹ | kcat/Km [5]: 1.08e+07 s⁻¹ M⁻¹
